Consider four molecules from paper PMC3961177, “Photoactivated UVR8-COP1 Module Determines Photomorphogenic UV-B Signaling Output in Arabidopsis” (PLoS Genetics, 2014).

Series [1] has as its target T1, LexA fused wild-type UVR8 (UV … LOCUS 8) (Arabidopsis thaliana), Q9FN03.
T1 chain: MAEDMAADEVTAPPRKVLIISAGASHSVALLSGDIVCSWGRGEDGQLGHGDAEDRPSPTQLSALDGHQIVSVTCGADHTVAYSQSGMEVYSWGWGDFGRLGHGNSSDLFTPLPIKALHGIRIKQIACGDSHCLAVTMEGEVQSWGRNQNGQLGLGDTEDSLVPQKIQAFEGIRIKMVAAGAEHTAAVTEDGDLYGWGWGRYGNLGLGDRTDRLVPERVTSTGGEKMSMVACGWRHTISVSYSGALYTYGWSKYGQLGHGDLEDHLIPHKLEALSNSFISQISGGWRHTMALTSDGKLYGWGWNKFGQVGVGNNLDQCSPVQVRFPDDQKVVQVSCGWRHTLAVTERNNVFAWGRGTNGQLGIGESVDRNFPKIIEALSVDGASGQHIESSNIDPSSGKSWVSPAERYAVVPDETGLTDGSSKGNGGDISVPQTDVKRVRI
In words: SDS-PAGE of unboiled extracts with immunoblot; total protein extracts of yeast EGY48 expressing LexA-UVR8, kept on ice under −UV-B or +UV-B for 20 min, loaded without boiling, anti-LexA immunoblot. Conditions: remark: other sources report otherwise. (In general: Immunoblotting shows a protein as a band on a membrane.)

Series [2] deals with the molecule itself. The series is described as above.
Series [3] concerns the molecule itself. In words: SDS-PAGE of unboiled extracts with immunoblot; total protein extracts of 4-day-old transgenic seedlings grown under −UV-B or +UV-B, extracts kept on ice under the same condition for 30 min, loaded without boiling, anti-GFP immunoblot.
For series [4], the target named is T2, YFP-UVR8^WT (proUVR8-YFP-UVR8/uvr8-6) (Arabidopsis thaliana), Q9FN03.
T2 chain: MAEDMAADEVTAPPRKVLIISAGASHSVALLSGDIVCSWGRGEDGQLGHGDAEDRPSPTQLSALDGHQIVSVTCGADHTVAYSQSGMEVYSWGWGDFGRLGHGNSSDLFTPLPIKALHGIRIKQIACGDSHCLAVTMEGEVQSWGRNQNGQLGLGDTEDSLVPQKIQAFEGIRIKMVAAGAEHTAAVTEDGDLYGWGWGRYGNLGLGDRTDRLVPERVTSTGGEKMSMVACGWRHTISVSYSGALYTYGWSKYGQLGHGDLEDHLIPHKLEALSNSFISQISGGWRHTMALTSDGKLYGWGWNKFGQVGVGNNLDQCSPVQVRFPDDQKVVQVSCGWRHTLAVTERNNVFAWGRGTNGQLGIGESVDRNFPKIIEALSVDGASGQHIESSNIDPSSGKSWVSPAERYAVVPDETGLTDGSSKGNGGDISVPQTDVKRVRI
Described as above. The note with it: remark: other sources report otherwise.

B1: LexA fused wild-type UVR8 (UV … LOCUS 8), Q9FN03 1-440 (natural protein)
chain: MAEDMAADEVTAPPRKVLIISAGASHSVALLSGDIVCSWGRGEDGQLGHGDAEDRPSPTQLSALDGHQIVSVTCGADHTVAYSQSGMEVYSWGWGDFGRLGHGNSSDLFTPLPIKALHGIRIKQIACGDSHCLAVTMEGEVQSWGRNQNGQLGLGDTEDSLVPQKIQAFEGIRIKMVAAGAEHTAAVTEDGDLYGWGWGRYGNLGLGDRTDRLVPERVTSTGGEKMSMVACGWRHTISVSYSGALYTYGWSKYGQLGHGDLEDHLIPHKLEALSNSFISQISGGWRHTMALTSDGKLYGWGWNKFGQVGVGNNLDQCSPVQVRFPDDQKVVQVSCGWRHTLAVTERNNVFAWGRGTNGQLGIGESVDRNFPKIIEALSVDGASGQHIESSNIDPSSGKSWVSPAERYAVVPDETGLTDGSSKGNGGDISVPQTDVKRVRI
In series [1], B1 gave a stoichiometry N of 2.

B2: LexA fused UVR8^W285F (natural protein, Arabidopsis thaliana, UniProt Q9FN03 1-440, looked up)
chain: MAEDMAADEVTAPPRKVLIISAGASHSVALLSGDIVCSWGRGEDGQLGHGDAEDRPSPTQLSALDGHQIVSVTCGADHTVAYSQSGMEVYSWGWGDFGRLGHGNSSDLFTPLPIKALHGIRIKQIACGDSHCLAVTMEGEVQSWGRNQNGQLGLGDTEDSLVPQKIQAFEGIRIKMVAAGAEHTAAVTEDGDLYGWGWGRYGNLGLGDRTDRLVPERVTSTGGEKMSMVACGWRHTISVSYSGALYTYGWSKYGQLGHGDLEDHLIPHKLEALSNSFISQISGGFRHTMALTSDGKLYGWGWNKFGQVGVGNNLDQCSPVQVRFPDDQKVVQVSCGWRHTLAVTERNNVFAWGRGTNGQLGIGESVDRNFPKIIEALSVDGASGQHIESSNIDPSSGKSWVSPAERYAVVPDETGLTDGSSKGNGGDISVPQTDVKRVRI
notes: UV … LOCUS 8 (UVR8), Arabidopsis thaliana; also called mUVR8; source: yeast strain EGY48, LexA fusion; in total protein extract (dimer/monomer assay) and yeast two-hybrid fusion
Consider B2, for which the “stoichiometry N” value in series [2] was determined as 2.

B3: YFP-UVR8^W285F (proUVR8-YFP-UVR8^W285F/uvr8-6) (natural protein, Arabidopsis thaliana, UniProt Q9FN03 1-440, looked up)
chain: MAEDMAADEVTAPPRKVLIISAGASHSVALLSGDIVCSWGRGEDGQLGHGDAEDRPSPTQLSALDGHQIVSVTCGADHTVAYSQSGMEVYSWGWGDFGRLGHGNSSDLFTPLPIKALHGIRIKQIACGDSHCLAVTMEGEVQSWGRNQNGQLGLGDTEDSLVPQKIQAFEGIRIKMVAAGAEHTAAVTEDGDLYGWGWGRYGNLGLGDRTDRLVPERVTSTGGEKMSMVACGWRHTISVSYSGALYTYGWSKYGQLGHGDLEDHLIPHKLEALSNSFISQISGGFRHTMALTSDGKLYGWGWNKFGQVGVGNNLDQCSPVQVRFPDDQKVVQVSCGWRHTLAVTERNNVFAWGRGTNGQLGIGESVDRNFPKIIEALSVDGASGQHIESSNIDPSSGKSWVSPAERYAVVPDETGLTDGSSKGNGGDISVPQTDVKRVRI
notes: UV … LOCUS 8 (UVR8), Arabidopsis thaliana; The N-terminal place of YFP is read from the construct's name; source: transgenic Arabidopsis (native UVR8 promoter, uvr8-6 background), 4-day-old seedlings, in total protein extract; not shown: YFP, N-terminal, kept
Turning to B3, in series [3], the “stoichiometry N” value came to 2.

B4: YFP-UVR8^WT (proUVR8-YFP-UVR8/uvr8-6), Q9FN03 1-440 (natural protein)
chain: MAEDMAADEVTAPPRKVLIISAGASHSVALLSGDIVCSWGRGEDGQLGHGDAEDRPSPTQLSALDGHQIVSVTCGADHTVAYSQSGMEVYSWGWGDFGRLGHGNSSDLFTPLPIKALHGIRIKQIACGDSHCLAVTMEGEVQSWGRNQNGQLGLGDTEDSLVPQKIQAFEGIRIKMVAAGAEHTAAVTEDGDLYGWGWGRYGNLGLGDRTDRLVPERVTSTGGEKMSMVACGWRHTISVSYSGALYTYGWSKYGQLGHGDLEDHLIPHKLEALSNSFISQISGGWRHTMALTSDGKLYGWGWNKFGQVGVGNNLDQCSPVQVRFPDDQKVVQVSCGWRHTLAVTERNNVFAWGRGTNGQLGIGESVDRNFPKIIEALSVDGASGQHIESSNIDPSSGKSWVSPAERYAVVPDETGLTDGSSKGNGGDISVPQTDVKRVRI
For B4, the stoichiometry N in series [4] turned out to be 2.

One may read the stoichiometry N as the number of molecules, sites or subunits per partner or assembly.
